In experiment [1] the target is T1, human IL-23R on human cells (primary splenocytes; KIT225 cells) (human, UniProt Q5VWK5 24-629).
T1 sequence: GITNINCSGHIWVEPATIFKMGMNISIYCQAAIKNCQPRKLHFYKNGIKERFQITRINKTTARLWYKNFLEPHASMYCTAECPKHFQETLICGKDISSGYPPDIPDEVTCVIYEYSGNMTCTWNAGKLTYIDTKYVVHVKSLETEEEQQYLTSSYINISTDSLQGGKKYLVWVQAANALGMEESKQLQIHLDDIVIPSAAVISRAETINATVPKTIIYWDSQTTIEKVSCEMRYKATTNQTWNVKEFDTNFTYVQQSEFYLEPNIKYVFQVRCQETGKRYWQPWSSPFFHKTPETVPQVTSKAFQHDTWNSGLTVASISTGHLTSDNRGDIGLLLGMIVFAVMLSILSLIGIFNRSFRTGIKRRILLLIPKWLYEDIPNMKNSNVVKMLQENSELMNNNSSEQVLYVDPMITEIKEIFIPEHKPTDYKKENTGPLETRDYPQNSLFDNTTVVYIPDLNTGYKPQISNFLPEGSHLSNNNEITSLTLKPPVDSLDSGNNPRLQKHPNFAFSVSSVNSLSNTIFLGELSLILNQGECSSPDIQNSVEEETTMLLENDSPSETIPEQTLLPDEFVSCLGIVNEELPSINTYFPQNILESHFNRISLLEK
In words: cell-based or functional assay.

Experiment [2] has as its target T2, human IL-23R (human, UniProt Q5VWK5 24-353, limits assumed).
T2 construct: KinExA particles are coated with biotinylated IL-23R 'or a fragment thereof, such as the extracellular domain'; also called huIL-23R; hIL-23R
T2 sequence: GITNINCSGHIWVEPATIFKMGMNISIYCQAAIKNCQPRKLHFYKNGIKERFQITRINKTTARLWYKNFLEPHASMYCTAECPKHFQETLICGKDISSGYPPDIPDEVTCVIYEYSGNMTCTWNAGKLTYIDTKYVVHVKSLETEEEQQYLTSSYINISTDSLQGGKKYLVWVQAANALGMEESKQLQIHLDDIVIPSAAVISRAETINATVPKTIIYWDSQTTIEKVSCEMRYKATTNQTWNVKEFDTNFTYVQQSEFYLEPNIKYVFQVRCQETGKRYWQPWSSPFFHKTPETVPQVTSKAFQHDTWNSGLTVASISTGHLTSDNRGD
In words: BIAcore, essentially as in Example 4. Here is the method: (§1) BIAcore® label-free interaction analysis system determinations are performed essentially as described at Example 4 of U.S. Patent Application Publication No. 2007/0048315. Briefly, ligands (anti-IL-23R mAbs) are immobilized on a BIAcore® label-free interaction analysis system CM5 sensor chip using standard amine-coupling procedure. Kinetic constants for the various interactions are determined using BIAevaluation software 3.1. The Kd is determined using the calculated dissociation and association rate constants.
Background: SPR reads the build-up and loss of mass on a sensor chip optically.

Experiment [3] addresses T2, human IL-23R. Kind of experiment: BIAcore, antibody immobilized on CM5 chip. Here is the method:
as §1

The target in experiment [4] is T2, human IL-23R. In words: KinExA. Here is the method:
The equilibrium dissociation constants (Kd) for anti human IL-23R antibodies are determined using the KinExA 3000 instrument. Sapidyne Instruments Inc., Boise Id., USA KinExA uses the principle of the Kinetic Exclusion Assay method based on measuring the concentration of uncomplexed antibody in a mixture of antibody, antigen and antibody-antigen complex. The concentration of free antibody is measured by exposing the mixture to a solid-phase immobilized antigen for a very brief period of time. In practice, this is accomplished by flowing the solution phase antigen-antibody mixture past antigen-coated particles trapped in a flow cell. Data generated by the instrument are analyzed using custom software. Equilibrium constants are calculated using a mathematical theory based on the following assumptions:
PMMA particles (Sapidyne, Cat No. 440198) are coated with biotinylated IL-23R (or a fragment thereof, such as the extracellular domain) according to Sapidyne “Protocol for coating PMMA particles with biotinylated ligands having short or nonexistent linker arms.” EZ-link TFP PEO-biotin (Pierce, Cat. No. 21219) is used to make biotinylated IL-23R, as per the manufacturer's recommendations (Pierce bulletin 0874).
(A kinetic exclusion assay measures how much of one partner remains free in solution.)

B1: humanized anti-IL-23R antibody hum20D7 (heavy chain hu20D7-c, light chain hu20D7-II-b) (antibody, human IgG1, kappa, V domains shown)
VH: QVQLVQSGAEVKKPGASVKVSCKASGYTFTNYAMNWVRQAPGQGLEWMGWINTYTGEPTYSDDFKGRVTFTLDTSTSTAYMELRSLRSDDTAVYYCARGGGYDEDYFDYWGQGTLVTVSS
VL: DIVMTQSPLSLPVTPGEPASISCKSSQSLFNTINQKTYLAWYLQKPGQSPQLLIYFASTRESGVPDRFSGSGSGTDFTLKISRVEAEDVGVYYCQQHYDTPWTFGQGTKVEIKR
Regarding B1, in experiment [1], the “IC50, IFN-γ production by human primary splenocytes exposed to human IL-23 (170 pM)” value came to 34 pM and the “IC50, STAT3 phosphorylation in KIT225 cells stimulated with 138 pM human IL-23” value came out at 34 pM. In addition, the Kd (commonly the constant that tells how readily two partners part at equilibrium) in the experiment with human IL-23R [2] was determined as 0.131 nM.

B2: rat anti-human IL-23R antibody 8B10 (antibody, rat IgG2a, V domains shown)
VH: EVKLVESGGGLEQPKGSLKLSCTVSGFDFNSYGMSWVRQAPGKGLDLVADINSKSYNYATYYADSVKDRFTISRDDSQSMVYLEMDNLKTEDTALYYCTVHHSDYFEYWGQGVMVTVSS
VL: DIQMTQSPASLSASLGETVSIECLASEDIYNNLAWYQQKPGKSPQLLIYHASSLQDGVPSRFSGSGSGTQYSLKINSLESEDAATYFCLQDSEYPPTFGGGTKLELKR
notes: also called r8B10; parental rat 8B10 antibody
For B2, the dissociation constant (Kd) was roughly 0.3 nM in the experiment with human IL-23R [3] and 0.042 nM with human IL-23R [4].

B3: mouse anti-human IL-23R antibody 20D7 (antibody, mouse IgG1, V domains shown)
VH: QIQLVQSGPELKKPGETVKISCKASGYTFTNYAMNWVKQAPGKGLKWMGWINTYTGEPTYSDDFKGRFAFSLETSANTAYLQINNLKNEDTAAYFCTRGGGYDEDYFDYWGQGTTLTVSS
VL: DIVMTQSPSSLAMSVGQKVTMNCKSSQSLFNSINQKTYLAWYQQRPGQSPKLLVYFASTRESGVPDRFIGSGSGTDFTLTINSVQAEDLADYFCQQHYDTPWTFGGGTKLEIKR
notes: also called m20D7; mouse 20D7 antibody
For B3, the Kd with human IL-23R [3] is roughly 0.085 nM; with human IL-23R [4], 0.009 nM.
